The target of this test is MUC-1 gene product, the membrane mucin glycoprotein (polymorphic epithelial mucin or PEM) (human, UniProt P15941 24-1255). The test is described as follows: flow cytometry equilibrium binding on MCF7 cells. In general terms: A flow cytometer gives signals particle by particle.

One may read the Kd as the constant that tells how readily two partners part at equilibrium. Read a high Kd as weaker binding.

MUC-1 gene product, the membrane mucin glycoprotein (polymorphic epithelial mucin or PEM), sequence (P15941 24-1255): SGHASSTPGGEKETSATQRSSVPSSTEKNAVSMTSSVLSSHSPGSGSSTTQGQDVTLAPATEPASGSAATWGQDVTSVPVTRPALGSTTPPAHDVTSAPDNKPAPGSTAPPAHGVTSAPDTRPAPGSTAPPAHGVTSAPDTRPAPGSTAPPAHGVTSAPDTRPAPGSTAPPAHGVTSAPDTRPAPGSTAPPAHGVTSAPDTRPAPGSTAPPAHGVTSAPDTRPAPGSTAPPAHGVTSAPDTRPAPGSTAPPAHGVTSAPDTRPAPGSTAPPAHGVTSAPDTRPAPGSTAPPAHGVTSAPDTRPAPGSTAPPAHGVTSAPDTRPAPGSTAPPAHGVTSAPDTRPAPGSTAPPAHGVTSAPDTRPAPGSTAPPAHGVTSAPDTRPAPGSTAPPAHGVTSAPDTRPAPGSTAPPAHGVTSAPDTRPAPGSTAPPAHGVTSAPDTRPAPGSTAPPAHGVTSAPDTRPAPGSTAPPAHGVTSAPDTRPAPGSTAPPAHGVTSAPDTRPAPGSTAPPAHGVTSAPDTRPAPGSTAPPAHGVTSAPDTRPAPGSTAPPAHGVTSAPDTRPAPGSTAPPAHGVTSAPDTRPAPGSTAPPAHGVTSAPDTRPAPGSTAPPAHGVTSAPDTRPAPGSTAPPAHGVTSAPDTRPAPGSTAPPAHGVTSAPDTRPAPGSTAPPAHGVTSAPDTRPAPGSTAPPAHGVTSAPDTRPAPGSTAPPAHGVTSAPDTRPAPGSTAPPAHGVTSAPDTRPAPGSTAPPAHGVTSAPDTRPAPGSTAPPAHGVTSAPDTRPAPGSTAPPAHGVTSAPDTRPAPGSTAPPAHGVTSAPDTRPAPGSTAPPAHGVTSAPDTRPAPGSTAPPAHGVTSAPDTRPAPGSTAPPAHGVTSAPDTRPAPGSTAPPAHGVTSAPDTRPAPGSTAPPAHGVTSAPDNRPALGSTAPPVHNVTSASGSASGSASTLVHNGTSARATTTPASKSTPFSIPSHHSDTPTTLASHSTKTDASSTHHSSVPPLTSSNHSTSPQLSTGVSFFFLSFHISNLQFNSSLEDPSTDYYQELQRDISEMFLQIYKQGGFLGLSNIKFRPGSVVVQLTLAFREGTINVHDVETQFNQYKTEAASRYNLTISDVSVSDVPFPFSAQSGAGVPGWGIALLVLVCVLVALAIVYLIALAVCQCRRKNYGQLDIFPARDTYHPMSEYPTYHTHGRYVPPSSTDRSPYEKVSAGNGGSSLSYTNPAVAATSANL

B1: huHMFG1 wild-type scFv 4.10W (scFv)
scFv: QVQLVQSGAEVKKPGASVKVSCKASGYTFSAYWIEWVRQAPGKGLEWVGEILPGSNNSRYNEKFKGRVTVTRDTSTNTAYMELSSLRSEDTAVYYCARSYDFAWFAYWGQGTLVTVSSGGGGSGGGGSGGGGSDIQMTQSPSSLSASVGDRVTITCKSSQSLLYSSNQKIYLAWYQQKPGKAPKLLIYWASTRESGVPSRFSGSGSGTDFTFTISSLQPEDIATYYCQQYYRYPRTFGQGTKVEIKR
Regarding B1, the Kd turned out to be 114 nM.

The record behind these values is patent publication US20060193849A1 (published 2006).
